Laboratory results from patent US20250339532A1 (FATE THERAPEUTICS, published 2025).

Biological target: CD38 (UniProt P28907 1-300, limits assumed)
Assay: cell-based or functional assay

B1: daratumumab (antibody, V domains shown)
VH: EVQLLESGGGLVQPGGSLRLSCAVSGFTFNSFAMSWVRQAPGKGLEWVSAISGSGGGTYYADSVKGRFTISRDNSKNTLYLQMNSLRAEDTAVYFCAKDKILWFGEPVFDYWGQGTLVTVSS
VL: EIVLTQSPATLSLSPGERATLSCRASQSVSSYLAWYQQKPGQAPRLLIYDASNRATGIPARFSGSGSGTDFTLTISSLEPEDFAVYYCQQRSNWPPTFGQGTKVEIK
**Q.** Which “fold reduction of CD38+ T cell counts in co-cultures with daratumumab against the control condition” value does the source give for B1 here?
**A.** ~15 fold

**Q.** And the “fold reduction of CD38+ pbNK cell counts in co-cultures with daratumumab against the control condition” value?
**A.** ~21 fold
